T1: cynomolgus monkey IL6 (cynomolgus monkey, UniProt P79341 28-212, limits assumed)
T1 construct: also called cynomolgus IL6; cyIL-6
T1 sequence (looked up): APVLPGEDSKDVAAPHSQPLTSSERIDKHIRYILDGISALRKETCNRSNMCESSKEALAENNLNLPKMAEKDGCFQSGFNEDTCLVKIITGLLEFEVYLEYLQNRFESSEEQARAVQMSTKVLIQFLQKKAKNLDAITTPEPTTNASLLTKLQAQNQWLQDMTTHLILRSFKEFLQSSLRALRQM

T2: human VEGF121 (human, UniProt P15692 181-395)
T2 construct: The limits of the proteins used (Humanzyme HZ-1206); also called human VEGFA121
T2 sequence: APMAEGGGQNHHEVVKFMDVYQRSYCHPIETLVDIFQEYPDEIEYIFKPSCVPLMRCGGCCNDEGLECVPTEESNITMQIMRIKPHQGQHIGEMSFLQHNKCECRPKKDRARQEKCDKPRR


Tests used:
cynomolgus monkey IL6 [1] = molecular target: T1, cynomolgus monkey IL6; experiment: SPR, Fab captured on anti-Fab chip, cynomolgus IL6 as analyte
Experimental: (§1) A Human Fab Binder (28958325, Cytiva) was diluted at a final concentration of 10 μg/ml in 10 mM sodium acetate buffer, pH 5.0 and immobilized on a CM5 sensor chip using standard amine coupling chemistry. […] The reference channel was treated accordingly.
(§2) Prior to the protein measurements five startup cycles were performed for conditioning purposes. On each cycle, HBS-EP+ buffer was flowed for 120 s followed by the regeneration of the derivatized chip surface by applying 10 mM Glycine buffer pH2.0 for 60 s. Fab fragment at a concentration of 75 nM was captured on this surface for 60 s at a flow rate of 10 μl/min in HBS-EP+ buffer. No Fab fragment was applied to the reference channel. […] Regeneration of the derivatized chip surface was achieved as described above. Data were evaluated with 8K Evaluation software (Biacore Insight Evaluation 3.0). Double referencing was used and the 1:1 Binding model was used to fit the raw data.

human IL6 [2] = molecular target: T3, human IL6 (human, UniProt P05231 30-212); experiment: cell-based or functional assay
[3] = molecular target: human VEGF-A (isoform not given) (human, UniProt P15692-4 27-191, limits assumed); experiment: cell-based or functional assay
human VEGF121 = molecular target: T2, human VEGF121; experiment: competition ELISA: Fab titrated against 10 pM VEGF121, free VEGF detected on plate-coated VEGF-R1
Experimental: (§3) The contact time between the Fab-Antigen mixture and the receptor-coated plate was restricted to 10 min at RT in order to minimize interference with the binding equilibria. […] The latter is detected exploiting the chromogenic conversion of the HRP substrate 3,3′,5,5′-tetramethylbenzidine TMB to 3,3′,5,5′-tetramethylbenzidine […], which can be followed by a change in absorbance at 450 nm. TMB was prewarmed to room temperature and incubated on the plate for 5 min before being quenched by the addition of IN H₂SO₄.

human IL6 [4] = molecular target: T3, human IL6; experiment: SPR, Fab captured on anti-Fab chip, human IL6 as analyte
Experimental: as §1, §2

human VEGF165 = human VEGF165 (human, UniProt P15692-4 27-191); experiment: competition ELISA: Fab titrated against 10 pM VEGF165, free VEGF detected on plate-coated VEGF-R1
Experimental: as §3

human IL6 [5] = molecular target: T3, human IL6; experiment: SPR in analogy to Example 3, Fab captured on anti-Fab chip
Experimental: as §1, §2

cynomolgus monkey IL6 [6] = molecular target: T1, cynomolgus monkey IL6; experiment: as above
Experimental: as §1, §2

Binder	Kd (cynomolgus monkey IL6 [1]) [nM]	IC50, inhibition of IL-6/IL-6R-induced ICAM-1 surface expression on HRMECs (flow cytometry) (human IL6 [2]) [nM]	IC50, inhibition of VEGF-A-induced HUVEC proliferation (alamarBlue) [3] [nM]	IC50 (human VEGF121) [nM]	Kd (human IL6 [4]) [nM]	IC50 (human VEGF165) [nM]	Kd (human IL6 [5]) [nM]	Kd (cynomolgus monkey IL6 [6]) [nM]
6HVL_4 (Fab, V domains shown, Bispecific Fab; also called VEGF/IL6-bispecific antibody 6HVL_4) VH: YPQLVESGGGLVQPGGSLRLSCEASVLFKHQDMSWVRQAPGKGLEWVGSIDPRGDHKYYNTKFIDRFTISRDNSKNTLYLQMNSLRAEDTAVYYCARDLDFMDEWGQGTLVTVSS VL: AIYMHQEPSSLSASVGDRVTITCQASYWLNSELAWYQQKPGKAPKLLIYDGDDRYPEVPSRFSGSGSHEDYTLTISSLQPEDFATYYCQQYRYTPYTFGQGTKLEIKR	1.48	1.52	2.06	0.458	0.069	0.111		
6HVL_4_YHE (Fab, V domains shown) VH: YPQLVESGGGLVQPGGSLRLSCEASVLFKHQDMSWVRQAPGKGLEWVGSIDPRGDHKYYNTKFIDRFTISRDNSKNTLYLQMNSLRAEDTAVYYCARDLDFMDEWGQGTLVTVSS VL: AIQMTQSPSSLSASVGDRVTITCQASYWLNSELAWYQQKPGKAPKLLIYDGDDRYPEVPSRFSGSGSHEDYTLTISSLQPEDFATYYCQQYRYTPYTFGQGTKLEIKR	1.39			0.528	0.065	0.135		

Second part, the binder after the results:

Kd (cynomolgus monkey IL6 [1]) [nM]	IC50, inhibition of IL-6/IL-6R-induced ICAM-1 surface expression on HRMECs (flow cytometry) (human IL6 [2]) [nM]	IC50, inhibition of VEGF-A-induced HUVEC proliferation (alamarBlue) [3] [nM]	IC50 (human VEGF121) [nM]	Kd (human IL6 [4]) [nM]	IC50 (human VEGF165) [nM]	Kd (human IL6 [5]) [nM]	Kd (cynomolgus monkey IL6 [6]) [nM]	Binder
						0.022	1.3	6HdL2.05 (Fab, V domains shown, also called monospecific anti-IL6 antibody 6HdL2.05) VH: YPQLVESGGGLVQPGGSLRLSCEASVLFKHQDMSWVRQAPGKGLEWVGSISPSGGSTYYNDNVLGRFTISRDNSKNTLYLQMNSLRAEDTAVYYCARDLDFMDEWGQGTLVTVSS VL: DIQMTQSPSSLSASVGDRVTITCRASQGISNYLAWYQQKPGKAPKLLIYDGDDRYPEVPSRFSGSGSGTDFTLTISSLQPEDFATYYCQQYYSTPYTFGQGTKLEIKR
				3.5				VH6L-BM (Fab, V domains shown, Prior art control, prepared by recombinant expression; also called bispecific antibody VH6L of WO2012/163520) VH: YYQLVESGGGLVQPGGSLRLSCAADGFLFSGYAMSWIRQAPGKGLEWIGQISGSGGSTVYNYNVLGRFTISRDNSKNTLYLQMNSLRAEDTAVYYCARDTGYFDHWGQGTLVTVSS VL: NIQKTQSPSSLSASVGDRVTITCRALWHISSYLAWYQQKPGKAPKLLIYAASHLHYGVPSRFSGSGSGTDFTLTISSLQPEDFATYYCQQYSGLPYTFGQGTKVEIK
